Experimental findings from patent publication CN114621348A (SHENZHEN SHENHI BIOMEDICINE CO LTD, dated 2022) are described below.

The EC50 is the concentration needed to bring the measured effect to its halfway point. The low end stands for a more potent agent, the high end for a less potent agent.

The target of experiment [1] is T1, 磷脂酰肌醇蛋白聚糖3(GPC3) (UniProt P51654 25-554).
T1 construct: whole, on cells; also called MXR7; OCI-5
Put plainly: flow cytometry on HepG2 cells, full-length IgG1.

Experiment [2] addresses T1, 磷脂酰肌醇蛋白聚糖3(GPC3). Kind of experiment: flow cytometry on GPC3-CHO-S cells, full-length IgG1.
Experiment [3] has as its target T1, 磷脂酰肌醇蛋白聚糖3(GPC3). Kind of experiment: flow cytometry on GPC3-CHO-S cells.
Experiment [4] deals with T1, 磷脂酰肌醇蛋白聚糖3(GPC3). Put plainly: flow cytometry on HepG2 cells.
In experiment [5] the target is T1, 磷脂酰肌醇蛋白聚糖3(GPC3). Kind of experiment: flow cytometry on HuH-7 cells. On the technique in general: In flow cytometry, cells or beads pass a laser one at a time.
Experiment [6] concerns the target T1, 磷脂酰肌醇蛋白聚糖3(GPC3). Kind of experiment: flow cytometry on HuH-7 cells, full-length IgG1.

T1 sequence (P51654 25-554 limits assumed, form in doubt): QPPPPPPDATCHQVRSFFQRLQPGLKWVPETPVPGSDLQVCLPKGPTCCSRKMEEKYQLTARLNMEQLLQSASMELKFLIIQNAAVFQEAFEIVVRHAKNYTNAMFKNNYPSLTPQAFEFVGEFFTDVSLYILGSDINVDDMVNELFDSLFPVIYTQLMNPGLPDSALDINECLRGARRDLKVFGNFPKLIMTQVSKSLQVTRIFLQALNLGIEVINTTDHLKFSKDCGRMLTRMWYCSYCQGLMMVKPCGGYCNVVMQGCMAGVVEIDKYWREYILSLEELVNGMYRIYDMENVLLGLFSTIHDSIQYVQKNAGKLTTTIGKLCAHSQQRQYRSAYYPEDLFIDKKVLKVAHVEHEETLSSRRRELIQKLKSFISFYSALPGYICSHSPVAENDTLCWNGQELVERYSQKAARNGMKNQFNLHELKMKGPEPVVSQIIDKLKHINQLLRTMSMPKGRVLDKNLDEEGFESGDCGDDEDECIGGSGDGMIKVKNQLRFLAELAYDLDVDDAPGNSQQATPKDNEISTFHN

B1: D48 (antibody, V domains shown)
VH: EVQLLESGGGLVQPGESLRLSCEASGLTFSSYPMAWVRQAPGKGLEWVSVIYSDGSKKFYADSVKGRFTISRHNSKNTLYLQMNSLRAEDTAVYYCARGISSSGFDYWGQGTLVTVSS
VL: DIQLTQSPSSLSASVGDRVTITCRASQGISSWLAWYQQKPGKAPKLLIYAASSLQSGVPSRFSGSGSGTDFTLTISSLQPEDFATYYCQQGNSFPLTFGGGTKVEIK
notes: also called 克隆D48
Consider B1, for which the EC50 stood at 11.6 µg/mL with 磷脂酰肌醇蛋白聚糖3(GPC3) [1] and 0.0968 µg/mL with 磷脂酰肌醇蛋白聚糖3(GPC3) [2].

B2: Codrituzumab (antibody, human IgG1, kappa, V domains shown)
VH: QVQLVQSGAEVKKPGASVKVSCKASGYTFTDYEMHWVRQAPGQGLEWMGALDPKTGDTAYSQKFKGRVTLTADKSTSTAYMELSSLTSEDTAVYYCTRFYSYTYWGQGTLVTVSS
VL: DVVMTQSPLSLPVTPGEPASISCRSSQSLVHSNRNTYLHWYLQKPGQSPQLLIYKVSNRFSGVPDRFSGSGSGTDFTLKISRVEAEDVGVYYCSQNTHVPPTFGQGTKLEIKR
notes: also called GC33; GPC3阳性抗体
As for B2, the half-maximal effective concentration (EC50) in the experiment with 磷脂酰肌醇蛋白聚糖3(GPC3) [3] was determined as 0.184 µg/mL; with 磷脂酰肌醇蛋白聚糖3(GPC3) [4] it was 0.172 µg/mL; in the experiment with 磷脂酰肌醇蛋白聚糖3(GPC3) [5], 0.191 µg/mL.

B3: D36 (antibody, V domains shown)
VH: EVQLLESGGGLVKPGGSLRLSCAASGFTFSSYSMNWVRQAPGKGLEWVSSISSSSSYIYYADSVKGRFTISRDNAKNSLYLQMNSLRAEDTAVYYCARETTDGGMDVWGQGTLVTVSS
VL: DIQMTQSPSSVSASVGDRVTITCRASQDIGKYLNWYQQKAGKAPNLLIYDASNLKTGVSSRFSGSGSGTEFTFTISSLQPEDIATYFCQQFDDFPYTFGPGTKVGIR
notes: also called 克隆D36
In the experiment with 磷脂酰肌醇蛋白聚糖3(GPC3) [2], B3 gave a 50% effective concentration (EC50) of 0.0394 µg/mL.

B4: D47 (antibody, V domains shown)
VH: EVQLLESGGGLVKPGGSLRLSCAASGFTFSSYSMNWVRQAPGKGLEWVSSISSSSSYIYYADSVKGRFTISRDNAKNSLYLQMNSLRAEDTAVYYCARGAARFDYWGQGTMVTVSS
VL: NIQLTQSPSSVSASVGDRVTITCRASQGIWRWLAWYQHKPGKAPKLLISAASNLQSGVPSRFSGSGSGTDFTLTISSLQPEDVATYYCQQANSFPSLTFGGGTKVDIR
notes: also called 克隆D47
Consider B4, for which the EC50 with 磷脂酰肌醇蛋白聚糖3(GPC3) [6] amounted to 0.0228 µg/mL.

B5: D38 (antibody, V domains shown)
VH: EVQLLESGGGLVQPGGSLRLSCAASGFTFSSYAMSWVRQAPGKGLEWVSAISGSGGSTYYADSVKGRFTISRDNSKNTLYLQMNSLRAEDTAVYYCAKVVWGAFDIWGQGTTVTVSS
VL: NIQMTQSPSSLSASVGDRVTISCQASQDISNYVNWYQQRPGKAPKLLMYDASNLEVGVPVRFRGSGSGTEFTFTILSLQPEDLGTYYCQQYDSLPFTFGQGTKLDLK
notes: also called 克隆D38
On to B5, for which the EC50 with 磷脂酰肌醇蛋白聚糖3(GPC3) [1] came out at 83.9 µg/mL; with 磷脂酰肌醇蛋白聚糖3(GPC3) [6], 45.1 µg/mL; in the experiment with 磷脂酰肌醇蛋白聚糖3(GPC3) [2], 0.0394 µg/mL.

B6: D5 (antibody, V domains shown)
VH: EVQLLESGGGVVQPGRSLRLSCAASGFTFSSYAMHWVRQAPGKGLEWVAVISYDGSNKYYADSVKGRFTISRDNSKNTLYLQMNSLRAEDTAVYYCARQYSSSSPFDYWGQGTLVTVSS
VL: NIQLTQSPSTLSASVGDRITITCRASQSISRWLAWYQQKPGKAPKVLIYKASNLENGVPSRFSGSGSGTEFTLTISSLQPDDSATYYCQQHSYSSPWRFGQGTKVEIK
notes: also called 克隆D5
Take B6: the values for the EC50 in the experiment with 磷脂酰肌醇蛋白聚糖3(GPC3) [6] and in the experiment with 磷脂酰肌醇蛋白聚糖3(GPC3) [2] were 9.62 µg/mL and 0.0664 µg/mL, respectively.

B7: D42 (antibody, V domains shown)
VH: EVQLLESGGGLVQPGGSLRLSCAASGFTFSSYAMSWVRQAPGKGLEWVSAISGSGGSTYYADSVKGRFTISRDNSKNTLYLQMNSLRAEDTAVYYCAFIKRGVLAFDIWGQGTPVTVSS
VL: DIQLTQSPSSVSASVGDRVVITCRASQSLGNWLAWYQQKPGKAPNLLIYGASTLQTGVPSRFSGFHSGGEYTLSISNLQPEDAATYYCQQASSIPLTFGGGTKVEIK
notes: also called 克隆D42
Regarding B7, the EC50 in the experiment with 磷脂酰肌醇蛋白聚糖3(GPC3) [1] amounted to 18.3 µg/mL.

B8: D35 (antibody, V domains shown)
VH: EVQLVESGGGVVKPGGSLRLSCAASGFIFSDSYMTWLRQAPGKGLEWVSYISGSASDIKYADSVKGRFTISRDNAKNSLYLQMNSLRVEDTAVYYCARDPRLAGIWGQGTTVTVSS
VL: DIQLTQSPSTLSASIGDRVTITCRASQRVSSRLAWYQQKPGKAPKLLIYKTSNLEAEVPSRFSGSGSGTEFTLTISSLQPDDFATYYCQQYHSYPLTFGGGTKVEIK
notes: also called 克隆D35
In the case of B8, the 50% effective concentration (EC50) came to 7.94 µg/mL with 磷脂酰肌醇蛋白聚糖3(GPC3) [1] and 0.0316 µg/mL in the experiment with 磷脂酰肌醇蛋白聚糖3(GPC3) [2].

B9: D37 (antibody, V domains shown)
VH: QVQLLESGGGLVQPGGSLRLSCAASGFTFSSYAMNWVRQAPGKGLEWVSTISGSGGSTYYADSVKGRFTISRDNSKNTLYLQMNSLRAEDTAVYYCARGSWGAFDIWGQGTPVTVSS
VL: DIQLTQSPSSLSASVGDRVTITCQASQGISNYVNWYQQKPGKAPELLISDAYNLEAGVPSTFSGSGSGTQFTFTISSLQPEHIGTYYCQQFETIPWTFGQGTKIEVK
notes: also called 克隆D37
For B9, the EC50 with 磷脂酰肌醇蛋白聚糖3(GPC3) [6] came out at 6.21 µg/mL; with 磷脂酰肌醇蛋白聚糖3(GPC3) [2], 0.0314 µg/mL.
